Results taken from patent publication US20200157194A1 (Regeneron, published 2020).
Read-outs that look alike come from different tables or passages of the source.

T1: human GREM1 (hGREM1-His; SEQ ID NO: 595) (human, UniProt O60565 25-184)
T1 construct: also called biotin-hGREM1-His; recombinant human GREM1 protein
T1 sequence: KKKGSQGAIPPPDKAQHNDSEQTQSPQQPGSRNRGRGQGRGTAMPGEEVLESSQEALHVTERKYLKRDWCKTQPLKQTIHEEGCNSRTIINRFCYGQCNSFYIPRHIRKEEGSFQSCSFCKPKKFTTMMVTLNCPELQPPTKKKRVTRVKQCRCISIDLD

T2: recombinant human GREM1 (hGREM1-His; C-terminal 10His tagged, R&D, #5190-GR) (human, UniProt O60565 25-184, limits assumed)
T2 sequence: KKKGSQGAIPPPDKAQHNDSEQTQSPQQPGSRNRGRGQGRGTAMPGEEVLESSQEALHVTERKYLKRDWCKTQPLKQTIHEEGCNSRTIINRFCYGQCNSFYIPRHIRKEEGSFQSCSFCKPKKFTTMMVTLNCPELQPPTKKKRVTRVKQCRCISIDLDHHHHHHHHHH


Tests used:
[1] = target: T1, human GREM1 (hGREM1-His; SEQ ID NO: 595); test: SPR, Biacore T200, 25 C, mAb captured, hGREM1-His injected;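 also: Heparin-supplemented HBS-EP+ used as running buffer, association and dissociation phases followed, Kd computed as koff divided by kon and half-life derived from koff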
[2] = target: T2, recombinant human GREM1 (hGREM1-His; …); test: cell-based or functional assay
[3] = target: T2, recombinant human GREM1 (hGREM1-His; …); test: BLI Octet, mAb captured, 100 nM GREM1;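 also: octet Red96 biolayer interferometry at 25 °C in pH 7.4 HEPES saline buffer, antibodies held on anti-human IgG Fc capture biosensors, then exposed to GREM1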
[4] = target: T2, recombinant human GREM1 (hGREM1-His; …); test: cell-based or functional assay; remark: listed apart in the source
[5] = target: T2, recombinant human GREM1 (hGREM1-His; …); test: cell-based or functional assay; remark: listed apart in the source
[6] = target: T1, human GREM1 (hGREM1-His; SEQ ID NO: 595); test: SPR, Biacore T200, 37 C, mAb captured, hGREM1-His injected;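 also: HBS-EP running buffer containing heparin, association and dissociation phases tracked, KD computed as koff over kon and half-life derived from koff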
Protocol: Kinetic experiments were carried out using HBS-EP+heparin [10 mM HEPES, 150 mM NaCl, 3 mM EDTA, 0.05% (v/v) surfactant P20, 10 μg/ml heparin sodium salt, pH 7.4] as both the running buffer and the sample buffer. […] Antigen-antibody association was monitored for 150 seconds while dissociation in buffer was monitored for 420 seconds. Kinetic analysis was performed using Scrubber software version 2.0a or Biacore T200 evaluation software v1.0 to determine kₐ and kd values. KD and t_{1/2} were then calculated from the experimentally determined kₐ and kd values as KD=kd/kₐ and t_{1/2}=In(2)/kd.

[7] = target: T1, human GREM1 (hGREM1-His; SEQ ID NO: 595); test: competition ELISA, biotin-hGREM1-His (100 pM) binding to coated hBMP4
Protocol: Data were analyzed using a sigmoidal dose-response model within Prism™ software. […] The absorbance values of the wells containing the highest concentration for each antibody were used to determine the percent maximum blocking.

[8] = target: T2, recombinant human GREM1 (hGREM1-His; …); test: BLI Octet, mAb captured, 100 nM GREM1 without vs with 5 uM heparin;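 also: octet Red96 biolayer interferometry at 25 °C, antibodies captured on anti-human IgG Fc biosensors, association of GREM1 measured with versus without heparin in HEPES-buffered saline, pH 7.4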
Protocol: Binding measurements were conducted using an Octet Red96 label-free biomolecular interaction instrument (ForteBio). All experiments were performed at 25° C. using plate agitation at 1000 rpm. Solutions were made in an aqueous buffer containing 10 mM HEPES, 150 mM NaCl, 3 mM EDTA 0.05% P20, 0.1 mg/mL BSA and adjusted to pH of 7.4 (HBST buffer).
Anti-Human IgG Fc Capture biosensors (ForteBio) were separately loaded with 50 μg/mL solutions of 24 different anti-GREM1 antibodies for 60 seconds. Following a 30 second wash, duplicate biosensors for each antibody were submerged into wells containing either 100 nM GREM1 solutions or 100 nM GREM1 solutions containing 5 μM of heparin, measuring association for 300 seconds.

[9] = target: T2, recombinant human GREM1 (hGREM1-His; …); test: BLI Octet, mAb captured, 100 nM GREM1 + 5 uM heparin;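 also: octet Red96 biolayer interferometry at 25 °C, antibodies captured on anti-human IgG Fc biosensors, pH 7.4 HEPES buffer with 0.1 mg/mL BSA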

Row | Binder | Kd [1] | koff [1] | kon [1] | t1/2 [1] | IC50 [M], inhibition of hGREM1-His, W-20-17/BRE-luc luciferase (100 pM hBMP4, 10 nM hGREM1-His) [2] | IC50 [M], inhibition of hGREM1-His, W-20-17/BRE-luc luciferase (200 pM hBMP4, 20 nM hGREM1-His) [2] | Binding Signal with 30 sec Association [3] | Binding Signal with 300 sec Association [3] | hGREM1-His Inhibition IC50, M; W-20-17 cell differentiation assay (alkaline phosphatase) [4] | IC50 [M], inhibition of hGREM1-His, W-20-17/BRE-luc luciferase (100 pM hBMP4, 10 nM hGREM1-His) [5] | Kd [6] | koff [6] | kon [6] | t1/2 [6] | % blocked at maximum Ab tested (20 nM) [7] | IC50 [7] | Reduction in Signal from Heparin at 30 sec [8] | Reduction in Signal from Heparin at 300 sec [8] | Binding Signal with 30 sec Association [9] | Binding Signal with 300 sec Association [9]
1 | H2aM2901N (antibody, mouse IgG2, V domains shown, H2M prefix = mouse IgG2 Fc (here H2aM); also called H2M2901N) VH: EVQLVESGGGLVKPGGSLRLSCAASGFTFSYYSMIWVRQAPGKGLEWVSSISSSSSYIYYADSVKGRFTISRDNAKKSMYLQMNSLRAEDTAVYYCARGSGYPDYWGQGTLVTVSS VL: DIQMTQSPSSLSASVGDRVTITCRASQGINNYLAWYQQKPGKVPKLLIYAASTLRSGVPSRFSGSGSGTDFTLTISSLQPEDVATYYCQKYNSAPFTFGPGTKVDIK | 8.8 nM | 0.00145 s⁻¹ | 164000 M⁻¹ s⁻¹ | 8 min | 1.7e-09 M |  |  |  |  |  |  |  |  |  |  |  |  |  |  | 
2 | H1M2907N (antibody, V domains shown, H1M prefix marks the Fc (chimeric, mouse constant domains)) VH: QVQLVESGGGVVQPGRSLRLSCAASGFTFSSYGMHWVRQAPGKGLEWVAIIWNDGSNKYYVDSVKGRFTISRANSKNTLYLQMNSLRAEDTAVYYCARDGLEPDAFDIWGQGTMVTVSS VL: EIVLTQSPATLSLSPGERATLSCRASQSVSSFLAWYQQKPGQAPRLLIYDASNRATGIPARFSGSGSGTDFTLTISSLEPEDFAVYYCQQRSNWPPYTFGQGTKLEIK | 45.3 nM | 0.00281 s⁻¹ | 62000 M⁻¹ s⁻¹ | 4.1 min | 1.8e-09 M |  |  |  |  |  |  |  |  |  |  |  |  |  |  | 
3 | H3M2929N (antibody, V domains shown, H3M prefix marks the Fc (chimeric, mouse constant domains)) VH: QVQLVESGGGVVQPGRSLRLSCAASGFIFSSYGMHWVRQAPGKGLEWVAVIWNDGSNKYSADSVKGRFTVSRDNSKNTLYLQMNSLKAEDTAVYYCARDGEWEVFDYWGQGTLVTVSS VL: DIVMTQSPVTLSASPGERATLSCRASQSVRSNLAWYQEKPGQAPRLLIYGASTRATGIPARFSGSGSGTEFTLTISSLQSEDFAVYYCQQYNDWPPWTFGQGTKVEIK | 29 nM | 0.00362 s⁻¹ | 125000 M⁻¹ s⁻¹ | 3 min | 2.2e-09 M |  |  |  |  |  |  |  |  |  |  |  |  |  |  | 
4 | H2bM2785N (antibody, mouse IgG2, V domains shown) VH: EVQLLESGGGLVQPGGSLRLSCAASGFTFSSYVMNWVRQAPGKGLEWVSAISGSGGSTSYADSVKGRSTISRDNSKNTLYLQMNSLRAEDTAVYYCAKGDIAAIVFDAFDIWGQGTMVTVSS VL: DIQMTQSPSSLSASVGDRVTITCQASQDISNCLNWYQHKPGKAPKLLIYDASYLETGGPSRFSGSGSGTDFTFTIRSLQPEDFATYYCQQYDNLPYTFGQGTKLEIK |  |  |  |  |  | 2.7e-08 M |  |  |  |  |  |  |  |  |  |  |  |  |  | 
5 | H4H6260P (antibody, human IgG4, V domains shown, H4H prefix = human IgG4 Fc) VH: QVQLVESGGGVVQPGRSLRLSCAASGFTFSTYGMHWVRQAPGKGLEWVAIIWYDGSNYYYADSVKGRFTISRDNSKNTLYLQMNSLRAEDTAVYYCAREDRNDVFDIWGQGTMVTVSS VL: EIVLTQSPATLSLSPGERATLSCRASQSVSSFLAWYQQKPGQAPRLLIYDSSNRATGIPARFSGSGSGTDFTLTISSLEPEDFAVYYCQQLSNWPPITFGQGTRLEIK | 0.669 nM | 6.51e-05 s⁻¹ | 97400 M⁻¹ s⁻¹ | 177 min |  |  | 0.24 nm | 0.42 nm | 3.3 nM | 4.6e-10 M | 1.71 nM | 0.000285 s⁻¹ | 166000 M⁻¹ s⁻¹ | 41 min | 87% | < 0.025 nM | 0.17 nm | 0.05 nm | 0.07 nm | 0.37 nm
6 | H4H6270P (antibody, human IgG4, V domains shown, H4H prefix = human IgG4 Fc) VH: QVQLVESGGDVVQPGRSLRLSCAASGFTFSSYGMHWVRQAPGKGLEWVAIIWNDGSNKYYTDSVKGRFTISRDNSKNTLYLQMNGLRAEDTAIYYCARDQDQFDYWGQGTLVTVSS VL: EIVMTQSPATLSVSPGERATLSCRASQSISTNLAWYRQKPGQAPRLLIYDASTRATGIPARFSGSGSGTDFTLTISSLQSEDFAVYYCQQYSNWPPYTFGQGTKLEIK | 4.08 nM | 0.000175 s⁻¹ | 42900 M⁻¹ s⁻¹ | 66 min |  |  | 0.2 nm | 0.39 nm | 3.1 nM | 5.4e-10 M | 6.79 nM | 0.00065 s⁻¹ | 95800 M⁻¹ s⁻¹ | 18 min | 62% | 1.9 nM | 0.15 nm | 0.06 nm | 0.05 nm | 0.33 nm
